From patent US20160340412A1 come the findings set out here.

As usually defined, the Kd is a measure of binding affinity in units of concentration.

The assay deals with C3. The assay can be described thus: analytical ultracentrifugation; self-association (dimer).

C3 showed a Kd of 188 µM.
